Laboratory results taken from PMC4569402.
Where “and” joins values, the source holds several entries; their conditions need not be identical. Equal entries are not always repeated.

What was measured:
[1] = biological target: BNP with deletion of aa 1-66 (BNP-Δ66) (influenza B virus (B/panama/45/1990)); test: negative-stain electron microscopy
[2] = biological target: BNP with deletion of aa 1-38 (BNP-Δ38) (influenza B virus (B/panama/45/1990)); test: negative-stain electron microscopy

Substance | stoichiometry N [1] | stoichiometry N [2]
BNP with deletion of aa 1-66 (BNP-Δ66) (domain or fragment) | 4 and 5 | –
BNP with deletion of aa 1-38 (BNP-Δ38) (domain or fragment) | – | 4 and 5
